These results are taken from US20250360083A1.

The target of the assay is CXCR4 receptor on J-Lat8.4, Jurkat E6 and U1 cells (human) (UniProt P61073). In words: cell-based or functional assay.

In turn, “cyclic peptide cyclo (D-Tyr-Orn-Arg-Nal-Gly-) (CycPep), conjugated to DSPE-PEG and displayed on CXCR4 targeted lipid nanoparticles (T-LNP)” displayed a viral DNA excision (excised band intensity on gel), J-Lat8.4 and Jurkat E6 against U1 of 4 fold; a viral excision of less than 60%.
